B1: CA304 (antibody, V domains shown)
VH: EVQLQQWGAGLLKPSETLSLTCAVYGGSFSGYYWSWIRQPPGKGLEWIGEVNHSGSTNYNPSLKSRVTISVDTSKNQLSLKLNSVTAADTAVYYCARGNTMVRGVIIPFEYWDKGTLVTVSS
VL: DIVMTQTPLSLPVTLGQPASISCRSSQSLVHSDGNTYLNWFQQRPGQSPRRLIYKVSNRDSGVPDRFSGSGAGTDFTLKISRVEAEDVGVYYCTQATQFPFTFGPGTKVDIKR
B2: CA555 (antibody, V domains shown)
VH: B1 VH
VL: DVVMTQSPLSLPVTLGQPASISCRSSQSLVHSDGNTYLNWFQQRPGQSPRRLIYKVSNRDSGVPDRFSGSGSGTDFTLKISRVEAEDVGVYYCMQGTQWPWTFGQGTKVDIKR
B3: IgG4 wild-type control antibody (antibody)
heavy: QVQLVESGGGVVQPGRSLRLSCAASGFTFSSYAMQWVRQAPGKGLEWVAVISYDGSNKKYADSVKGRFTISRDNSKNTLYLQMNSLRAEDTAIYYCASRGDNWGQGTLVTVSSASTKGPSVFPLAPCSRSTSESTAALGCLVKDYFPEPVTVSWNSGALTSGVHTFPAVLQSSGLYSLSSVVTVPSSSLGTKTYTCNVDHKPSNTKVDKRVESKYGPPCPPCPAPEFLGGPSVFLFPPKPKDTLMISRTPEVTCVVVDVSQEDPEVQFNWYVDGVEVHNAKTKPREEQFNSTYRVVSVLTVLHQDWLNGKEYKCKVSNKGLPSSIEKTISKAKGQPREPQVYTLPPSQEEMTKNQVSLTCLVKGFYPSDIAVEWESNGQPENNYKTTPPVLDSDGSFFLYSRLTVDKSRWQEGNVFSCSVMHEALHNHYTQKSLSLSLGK
light: DIVMTQSPSSLSASVGDRVTITCRASQGIRNDLGWYQQKPGKAPKLLIYAASSLQSGVPSRFSGSGSGTDFTLTISSLQPEDFATYYCLQDYNYPRTFGQGTKVEIKRTVAAPSVFIFPPSDEQLKSGTASVVCLLNNFYPREAKVQWKVDNALQSGNSQESVTEQDSKDSTYSLSSTLTLSKADYEKHKVYACEVTHQGLSSPVTKSFNRGEC
B4: CA530 (antibody)
heavy: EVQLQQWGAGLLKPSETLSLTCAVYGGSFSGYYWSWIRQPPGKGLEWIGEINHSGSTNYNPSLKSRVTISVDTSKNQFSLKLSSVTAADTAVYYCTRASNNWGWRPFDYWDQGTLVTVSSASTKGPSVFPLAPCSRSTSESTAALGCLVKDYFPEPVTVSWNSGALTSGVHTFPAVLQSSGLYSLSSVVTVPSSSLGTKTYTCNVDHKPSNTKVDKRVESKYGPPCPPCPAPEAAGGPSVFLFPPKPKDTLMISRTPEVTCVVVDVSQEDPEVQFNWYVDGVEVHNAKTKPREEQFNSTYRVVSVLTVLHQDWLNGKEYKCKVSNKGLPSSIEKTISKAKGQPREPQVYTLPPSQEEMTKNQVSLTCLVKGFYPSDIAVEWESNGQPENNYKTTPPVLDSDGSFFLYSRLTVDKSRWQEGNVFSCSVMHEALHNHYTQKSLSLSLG
light: DIVMTQTPLSLPVTLGQPASISCRSSQSLVHSDGNTYLNWFQQRPGQSPRRLIYKVSNRDSGVPDRFSGSGSGTDFTLKISRVEAEDVGVYYCMQGTHWPRTFGQGTKVEIKRTVAAPSVFIFPPSDEQLKSGTASVVCLLNNFYPREAKVQWKVDNALQSGNSQESVTEQDSKDSTYSLSSTLTLSKADYEKHKVYACEVTHQGLSSPVTKSFNRGEC
notes: copies: 2 + 2

Legend:
[1] = biological target: Spike S1+S2 protein of Wuhan-Hu-1 (Yiqiao Shenzhou / SB, 40589-V08B1) (SARS-CoV-2 Wuhan-Hu-1 strain, UniProt P0DTC2 16-1213)
[2] = biological target: S protein of Wuhan-Hu-1 on pseudovirus (SARS-CoV-2 Wuhan-Hu-1 strain, UniProt P0DTC2 14-1273); assay: cell-based or functional assay
[3] = biological target: S protein of SARS-CoV-2 true virus, strain BetaCoV/Beijing/IMEBJ01/2020 (SARS-CoV-2 BetaCoV/Beijing/IMEBJ01/2020); assay: cell-based or functional assay
[4] = biological target: T1, human CD64 (ACROBiosystems, catalog number FCA-H52H2) (human, UniProt P12314 16-288)
T1 sequence (P12314 16-288 limits assumed): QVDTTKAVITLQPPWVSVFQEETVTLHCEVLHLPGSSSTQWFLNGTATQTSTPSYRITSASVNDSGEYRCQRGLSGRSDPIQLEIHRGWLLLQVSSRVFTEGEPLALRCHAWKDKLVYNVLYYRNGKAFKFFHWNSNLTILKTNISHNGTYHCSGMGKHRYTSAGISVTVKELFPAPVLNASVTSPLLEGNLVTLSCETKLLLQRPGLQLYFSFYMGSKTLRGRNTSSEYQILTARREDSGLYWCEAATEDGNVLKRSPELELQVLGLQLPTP

[5] = biological target: T1, human CD64 (ACROBiosystems, catalog …); assay: BLI, OctetRED 96, antibody on FAB2G sensor

Binder | IC50 [1] | IC50(nM), pseudovirus neutralisation on 293T-ACE2 cells (Luciferase RLU) [2] | IC50, pseudovirus neutralisation (method as 3.15) [2] | IC50, neutralisation of true virus on Vero cells (plaques) [3] | Kd [4] | binding result [5]
B1 | 0.176 nM | 0.2 nM | 0.821 nM | 0.08 µg/mL |  | 
B2 | 0.187 nM | 0.98 nM | 0.328 nM |  |  | 
B3 |  |  |  |  | 3.41 nM | 
B4 |  | 0.11 nM |  |  |  | no binding

— patent WO2021244601A1 (dated 2021)
